Reference: US20110275702

Tested on: Ramos cell surface target (unidentified; human B-cell leukemia cells)
Experiment: competition
Conditions: competition with FITC-labeled monomer on target cells, flow cytometry

| Sequence | IC50 [nM] |
| --- | --- |
| TAGGCAGTGGTTTGACGTCCGCATGTTGGGAATAGCCACGCCT / TAGGCAGTGGTTTGACGTCCGCATGTTGGGAATAGCCACGCCT [rigid dimer of SEQ 3 aptamer] | 22.5 |
| TAGGCAGTGGTTTGACGTCCGCATGTTGGGAATAGCCACGCCT / TAGGCAGTGGTTTGACGTCCGCATGTTGGGAATAGCCACGCCT / TAGGCAGTGGTTTGACGTCCGCATGTTGGGAATAGCCACGCCT [flexible trimer of SEQ 3 aptamer] | 27.8 |
| TAGGCAGTGGTTTGACGTCCGCATGTTGGGAATAGCCACGCCT / TAGGCAGTGGTTTGACGTCCGCATGTTGGGAATAGCCACGCCT [flexible dimer of SEQ 3 aptamer] | 33 |
| TAGGCAGTGGTTTGACGTCCGCATGTTGGGAATAGCCACGCCT / TAGGCAGTGGTTTGACGTCCGCATGTTGGGAATAGCCACGCCT / TAGGCAGTGGTTTGACGTCCGCATGTTGGGAATAGCCACGCCT [rigid trimer of SEQ 3 aptamer] | 20.8 |
| TAGGCAGTGGTTTGACGTCCGCATGTTGGGAATAGCCACGCCT / TAGGCAGTGGTTTGACGTCCGCATGTTGGGAATAGCCACGCCT / TAGGCAGTGGTTTGACGTCCGCATGTTGGGAATAGCCACGCCT / TAGGCAGTGGTTTGACGTCCGCATGTTGGGAATAGCCACGCCT [rigid tetramer of SEQ 3 aptamer] | 11.6 |

Same assay, conditions: unlabeled monomer vs FITC-labeled monomer on target cells, flow cytometry

| Sequence | IC50 [nM] |
| --- | --- |
| TAGGCAGTGGTTTGACGTCCGCATGTTGGGAATAGCCACGCCT [Ramos-binding ssDNA aptamer monomer] | 400 |
